Measured values reported in IntAct's records for PubMed 19933576.

B1: Prelamin-A/C (Homo sapiens), P02545 (parent)
chain: METPSQRRATRSGAQASSTPLSPTRITRLQEKEDLQELNDRLAVYIDRVRSLETENAGLRLRITESEEVVSREVSGIKAAYEAELGDARKTLDSVAKERARLQLELSKVREEFKELKARNTKKEGDLIAAQARLKDLEALLNSKEAALSTALSEKRTLEGELHDLRGQVAKLEAALGEAKKQLQDEMLRRVDAENRLQTMKEELDFQKNIYSEELRETKRRHETRLVEIDNGKQREFESRLADALQELRAQHEDQVEQYKKELEKTYSAKLDNARQSAERNSNLVGAAHEELQQSRIRIDSLSAQLSQLQKQLAAKEAKLRDLEDSLARERDTSRRLLAEKEREMAEMRARMQQQLDEYQELLDIKLALDMEIHAYRKLLEGEEERLRLSPSPTSQRSRGRASSHSSQTQGGGSVTKKRKLESTESRSSFSQHARTSGRVAVEEVDEEGKFVRLRNKSNEDQSMGNWQIKRQNGDDPLLTYRFPPKFTLKAGQVVTIWAAGAGATHSPPTDLVWKAQNTWGCGNSLRTALINSTGEEVAMRKLVRSVTVVEDDEDEDGDDLLHHHHGSHCSSSGDPAEYNLRSRTVLCGTCGQPADKASASGSGAQVGGPISSGSSASSVTVTRSYRSVGGSGGGSFGDNLVTRSYLLGNSSPRTQSPQNCSIM
partner: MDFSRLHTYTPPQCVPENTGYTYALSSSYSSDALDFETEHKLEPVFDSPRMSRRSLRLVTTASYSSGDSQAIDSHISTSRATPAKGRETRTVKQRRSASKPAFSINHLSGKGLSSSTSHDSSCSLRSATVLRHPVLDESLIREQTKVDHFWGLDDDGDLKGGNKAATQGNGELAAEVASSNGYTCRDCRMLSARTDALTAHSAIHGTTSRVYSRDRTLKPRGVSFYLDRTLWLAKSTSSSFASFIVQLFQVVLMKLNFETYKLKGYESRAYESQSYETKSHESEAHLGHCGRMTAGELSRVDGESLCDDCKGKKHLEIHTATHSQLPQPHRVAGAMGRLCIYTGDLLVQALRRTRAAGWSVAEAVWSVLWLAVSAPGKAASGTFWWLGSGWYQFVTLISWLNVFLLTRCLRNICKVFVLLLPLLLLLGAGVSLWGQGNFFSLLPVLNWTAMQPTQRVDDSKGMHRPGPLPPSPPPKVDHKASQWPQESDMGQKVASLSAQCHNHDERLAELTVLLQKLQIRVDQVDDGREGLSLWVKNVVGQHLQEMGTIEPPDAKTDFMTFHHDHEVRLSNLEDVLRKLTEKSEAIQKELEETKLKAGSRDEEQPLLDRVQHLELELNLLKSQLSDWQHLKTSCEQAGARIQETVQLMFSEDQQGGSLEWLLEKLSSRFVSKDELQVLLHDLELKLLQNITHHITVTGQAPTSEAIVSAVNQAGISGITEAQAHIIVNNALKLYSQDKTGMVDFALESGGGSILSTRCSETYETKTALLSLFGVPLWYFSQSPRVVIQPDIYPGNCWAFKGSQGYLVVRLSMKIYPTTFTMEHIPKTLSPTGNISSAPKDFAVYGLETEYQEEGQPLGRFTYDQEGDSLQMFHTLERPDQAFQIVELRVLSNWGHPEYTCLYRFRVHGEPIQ

Variants of: B1
Details: with sun1_mouse Sun1, Q9D666

Row | effect of a mutation on the interaction | Variant
1 | disrupting interaction | R527P
2 | disrupting interaction | L530P
